Substitutions are numbered along the chain they refer to.
T1: DR4 (TRAIL-R1) on cancer cells (human, UniProt O00220 24-468)
T1 sequence: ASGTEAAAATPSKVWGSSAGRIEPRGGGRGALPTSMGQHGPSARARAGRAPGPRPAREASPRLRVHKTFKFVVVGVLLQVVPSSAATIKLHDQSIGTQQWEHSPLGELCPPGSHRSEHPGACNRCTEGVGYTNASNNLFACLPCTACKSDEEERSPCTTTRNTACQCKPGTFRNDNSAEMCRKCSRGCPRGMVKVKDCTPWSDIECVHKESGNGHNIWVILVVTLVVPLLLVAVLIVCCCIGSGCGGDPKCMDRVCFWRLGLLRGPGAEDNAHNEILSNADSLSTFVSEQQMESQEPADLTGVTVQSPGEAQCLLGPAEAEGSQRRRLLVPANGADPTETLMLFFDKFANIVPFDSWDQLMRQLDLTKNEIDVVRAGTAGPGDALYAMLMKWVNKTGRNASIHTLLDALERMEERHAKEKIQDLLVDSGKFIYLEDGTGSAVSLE

T2: recombinant human TRAIL R1 (DR4)/Fc chimera (human, UniProt O00220 24-239)
T2 construct: bought (R&D Systems); not shown: Fc of the bought chimera (R&D Systems)
T2 sequence: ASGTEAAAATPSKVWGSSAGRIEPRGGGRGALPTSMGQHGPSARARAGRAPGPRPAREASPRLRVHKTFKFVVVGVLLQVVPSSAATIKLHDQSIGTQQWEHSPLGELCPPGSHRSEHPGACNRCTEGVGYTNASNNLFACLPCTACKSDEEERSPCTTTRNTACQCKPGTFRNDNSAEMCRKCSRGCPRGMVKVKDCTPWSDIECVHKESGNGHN

B1: 029-15.B3D (designed binder)
chain: EPPTQKPKKIVNAKKDVVNTKMFEELKSRLDTLAQEVALLKEQQALQTVCLKGTKVHMKCFLAFTQTKTFHEASEDCISRGGTLSTPQTGSENDALYEYLRQSVGNEAEIWLGLNELRTDGLWVDMTGARIAYKNWETEITAQPDGGVMRRSENCAVLSGAANGKWFDKRCRDQLPYICQFGIV
notes: ATRIMER; also called 9b3d
B2: 029-15.B9F (designed binder)
chain: B1 chain with E116K, L117R, R118V, T119W, D120Y, G121R, L122G, V148M, M149R, S152R
notes: ATRIMER; also called 2a1a
B3: 119p83P1H4 (designed binder)
chain: EPPTQKPKKIVNAKKDVVNTKMFEELKSRLDTLAQEVALLKEQQALQTVCLKGTKVHMKCFLAFTQTKTFHEASEDCISRGGTLSTPQTGSENDALYEYLRQSVGNEAEIWLGLNGWLEGVGWVDMTGARIAYKNWSKVRLEQPDGGWPFSNENCAVLSGAANGKWFDKRCRDQLPYICQFGIV
notes: ATRIMER from pANA19
B4: 119p94P1D8 (designed binder)
chain: B3 chain with S137G, K138W, V139M, R140D, L141S, E142K
notes: ATRIMER from pANA19
B5: 119p94P1B5 (designed binder)
chain: B3 chain with S137A, K138R, V139H, R140I, L141N
notes: ATRIMER from pANA19
B6: 119p94P1B4 (designed binder)
chain: B3 chain with S137A, K138E, R140P, L141F, E142F
notes: ATRIMER from pANA19
B7: 119p94P1C1 (designed binder)
chain: B3 chain with S137A, K138I, V139S, R140D, L141E, E142R
notes: ATRIMER from pANA19
B8: 119p83P1H1 (designed binder)
chain: B3 chain with S137T, K138Q, V139R, R140H, L141S, E142G
notes: ATRIMER from pANA19
B9: 119p94P1F4 (designed binder)
chain: B3 chain with S137A, K138A, R140T, L141M
notes: ATRIMER from pANA19
B10: 119p83P1G3 (designed binder)
chain: ALQTVCLKGTKVHMKCFLAFTQTKTFHEASEDCISRGGTLSTPQTGSENDALYEYLRQSVGNEAEIWLGLNGWLEGVGWVDMTGARIAYKNWYVRSEGQPDGGWPFSNENCAVLSGAANGKWFDKRCRDQLPYICQFGIV
notes: on phage
B11: 119p94P1D11 (designed binder)
chain: B10 chain with Y93G, V94S, R95T, S96G, G98K
notes: on phage
B12: 119p83P1H8 (designed binder)
chain: B10 chain with Y93G, V94G, R95S, S96I, E97S, G98A
notes: on phage
B13: 119p94P1B8 (designed binder)
chain: B10 chain with Y93W, V94S, R95Y, S96W, E97D, G98T
notes: on phage
B14: 119p94P1A4 (designed binder)
chain: B10 chain with Y93F, V94A, R95E, S96F, E97F, G98L
notes: on phage
B15: 119p94P1D4 (designed binder)
chain: B10 chain with Y93A, V94A, R95F, S96P, E97V, G98E
notes: on phage
B16: 119p94P1B2 (designed binder)
chain: B10 chain with Y93W, V94F, R95P, S96T, E97L, G98S
notes: on phage
B17: 119p94P1G1 (designed binder)
chain: B10 chain with Y93G, V94E, R95V, S96I, E97A, G98P
notes: on phage
B18: 119p94P1B6 (designed binder)
chain: B10 chain with Y93H, V94P, R95Q, S96G, E97D, G98R
notes: on phage
B19: 119p83P1G12 (designed binder)
chain: B10 chain with Y93G, V94S, R95Y, S96G, E97P, G98F
notes: on phage
B20: 119p83P1H3 (designed binder)
chain: B10 chain with Y93S, V94E, R95D, S96R, E97P
notes: on phage
B21: 119p94P1D2 (designed binder)
chain: B10 chain with Y93L, V94D, R95V, S96T, E97K, G98T
notes: on phage
B22: 119p83P1H7 (designed binder)
chain: B10 chain with Y93V, V94N, R95H, S96G, E97V
notes: on phage
B23: 119p94P1E7 (designed binder)
chain: B10 chain with Y93I, V94W, R95S, S96R, E97I, G98E
notes: on phage
B24: 119p83P1H5 (designed binder)
chain: B10 chain with Y93G, V94T, R95G, S96V, E97M
notes: on phage
B25: 119p94P1H10 (designed binder)
chain: B10 chain with Y93S, V94T, R95A, S96Q, E97N
notes: on phage
B26: 119p94P1E10 (designed binder)
chain: B10 chain with Y93R, R95P, E97L, G98R
notes: on phage
B27: 119p83P1H12 (designed binder)
chain: B10 chain with Y93G, V94T, R95H, S96I, E97S, G98S
notes: on phage
B28: 119p94P1H3 (designed binder)
chain: B10 chain with Y93S, V94L, R95S, S96W, E97H, G98P
notes: on phage
B29: 014-42.3B8 (designed binder)
chain: EPPTQKPKKIVNAKKDVVNTKMFEELKSRLDTLAQEVALLKEQQALQTVCLKGTKVHMKCFLAFTQTKTFHEASEDCISRGGTLSTPQTGSENDALYEYLRQSVGNEAEIWLGLNGWLEGVGWVDMTGARIAYKNWETEITAQPDGGEHWGWENCAVLSGAANGKWFDKRCRDQLPYICQFGIV
notes: ATRIMER; also called 14p42P3B8
B30: 014-42.3D10 (designed binder)
chain: B29 chain with W117Y, V121Y, E148A, H149T, W150I, G151A
notes: ATRIMER
B31: 014-42.3D11 (designed binder)
chain: B29 chain with V121A, E148W, G151R
notes: ATRIMER
B32: 65p114P1A3 (designed binder)
chain: B29 chain with V121S, E137A, T138D, E139P, I140K, T141W, A142S, E148V, H149Q, G151R
B33: 65p114P1B2 (designed binder)
chain: B29 chain with V121S, E137F, T138H, E139D, I140R, T141F, A142N, E148V, H149Q, G151R
B34: 142p62P1G2 (designed binder)
chain: B29 chain with V121S, E137A, T138D, I140R, T141F, A142L, E148V, H149Q, G151R
B35: 142p72P1C9 (designed binder)
chain: B29 chain with V121S, E137G, T138D, E139P, I140R, T141W, A142S, E148V, H149Q, G151R
B36: 142p62P1A2 (designed binder)
chain: B29 chain with V121S, E137G, T138D, E139Q, I140R, T141L, E148V, H149Q, G151R

Target: T3, recombinant human TRAIL R2 (DR5)/Fc chimera (human, UniProt O14763 54-182)
T3 construct: bought (R&D Systems); not shown: Fc of the bought chimera (R&D Systems)
Test: SPR (Biacore), DR5-Fc captured by anti-Fc, ATRIMER analyte; apparent
Protocol: (§1) Immobilization of an anti-human IgG Fc antibody (Biacore) to the CM5 chip (Biacore) was performed using standard amine coupling chemistry and this surface was used to capture recombinant human DR4 or DR5 receptor Fc fusion protein (R&D Systems). ATRIMER™ dilutions (1-500 nM) were injected over the DR4 and DR5 receptor surface at 30 μl/min and kinetic constants were derived from the sensorgram data using the Biaevaluation software (version 3.1, Biacore). Data collection was 3 minutes for the association and 5 minutes for dissociation. The anti-human IgG surface was regenerated with a 30 s pulse of 3 M magnesium chloride. All sensorgrams were double-referenced against an activated and blocked flow-cell as well as buffer injections.

Binder | Ka [M⁻¹] | Kd [nM] | koff [s⁻¹] | kon [M⁻¹ s⁻¹]
B1 | 1.11e+06 | 899 | 0.000104 | 116
B2 | 2.38e+07 | 42.8 | 0.00184 | 43800

Target: T1, DR4 (TRAIL-R1) on cancer cells
Test: cell-based or functional assay

Binder | ED50 (nM) ST486 (cell killing) [nM]
B3 | 0.13
B4 | 30.5
B5 | 6.6
B6 | 127
B7 | 251
B8 | 13
B9 | 308

Target: T2, recombinant human TRAIL R1 (DR4)/Fc …
Test: phage ELISA on DR4/Fc

Binder | binding result
B10 | binds
B11 | binds
B12 | binds
B13 | binds
B14 | binds
B15 | binds
B16 | binds
B17 | binds
B18 | binds
B19 | binds
B20 | binds
B21 | binds
B22 | binds
B23 | binds
B24 | binds
B25 | binds
B26 | binds
B27 | binds
B28 | binds

Target: T2, recombinant human TRAIL R1 (DR4)/Fc …
Test: SPR (Biacore), DR4-Fc captured by anti-Fc, ATRIMER analyte; apparent
Protocol: as §1

Binder | Ka [M⁻¹] | Kd [nM] | koff [s⁻¹] | kon [M⁻¹ s⁻¹]
B29 | 1.11e+08 | 9.01 | 0.00101 | 112000
B30 | 6.58e+06 | 152 | 0.00185 | 12200
B31 | 2.53e+07 | 39.5 | 0.000526 | 13300

Target: T1, DR4 (TRAIL-R1) on cancer cells
Test: cell-based or functional assay
Remark: another data set of the same source

Binder | EC50 Colo205 (cell killing) [nM] | EC50 ST486 (cell killing) [nM]
B32 | 0.11 | 0.05
B33 | 0.18 | 0.09
B34 | 0.32 | 0.2
B35 | 0.18 | 0.03
B36 | 0.39 | 0.3

Target: T2, recombinant human TRAIL R1 (DR4)/Fc …
Test: SPR (Biacore), ATRIMER
Protocol: as §1
Clones were then sub-cloned into pANA19 for expression and purification as described above. Cell killing activity was measured as described above, and binding affinity was measured by Biacore.

Binder | Kd [nM] | koff [s⁻¹] | kon [M⁻¹ s⁻¹]
B3 | 0.16 | 2.21e-05 | 138000
B4 | 1.31 | 0.000542 | 400000
B5 | 1.11 | 0.000406 | 360000
B6 | 2.82 | 0.00052 | 185000
B7 | 1.85 | 0.000571 | 141000
B8 | 1.42 | 0.000329 | 221000
B9 | 2.96 | 0.000892 | 125000

Reference: patent US20120021995A1 (published 2012)
